From the supplement of paper PMC10126150
± gives the standard deviation of the averaged measurements.

System: ATP
Assay: switch fluorescence ratio, 500 uM ATP over buffer (Cy3 cluster intensity, sum of 5 cycles each) (fold (ratio)); higher = stronger signal-on switching upon ATP binding; sequences stand for … in TCGTCGGCAGCGTCAGATGTGTATAAGAGACAGTTTTTTTTTTTTTTTTTTTTTTTTT…TC
Settings: aptamer strand: ATP DNA aptamer (quencher-CACCTGGGGGAGTATTGCGGAGGAAGG + anchor), 100 nM annealed; ATP concentration: 500 uM
Method in brief: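 Clusters with intensities outside 100-1000 RFU were excluded. The remaining Cy3-labelled switching-strand clusters on a modified Illumina MiSeq flow-cell had been annealed to 100 nM quencher-labelled ATP aptamer and imaged in selection buffer, then after 15 min with 500 uM ATP at 22 °C, for five cycles separated by NaOH stripping and re-annealing. The fluorescence ratio, averaged per switch-domain sequence, is each cluster's summed target-cycle Cy3 intensity over its summed buffer-cycle Cy3 intensity.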
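Also: ATP exposure 15 min at 22 °C before imaging.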

Sequence | switch fluorescence ratio
GGTACGGAAA | 1.02 ± 0.016
AAAAGGGAGC | 1.14 ± 0.14
GGTCGTGCGG | 1 ± 0.018
AATGTATTTT | 1.01 ± 0.029
GGGGTATGTG | 0.992 ± 0.039
GTTACACGGT | 1.01 ± 0.021
TACTGACGAA | 1.27 ± 0.11
GATCTTCGTT | 1.01 ± 0.041
TTAATTTGAA | 0.997 ± 0.013
CGGTCCCTGC | 1.01 ± 0.1
GAATGTAGCA | 1.03 ± 0.011
GCAGAATGCA | 0.9861 ± 0.0024
AATTACCATC | 1.01 ± 0.017
ACTAGGGATG | 0.987 ± 0.014
ATGACTTCGG | 0.99 ± 0.028
GGATGGATTG | 1.004 ± 0.0022
TTTTGGTGGG | 0.9972 ± 0.0074
GCTAGGAACT | 0.979 ± 0.019
GGATTGGTGG | 1.01 ± 0.024
TAGGTGAGGG | 1.11 ± 0.16
TGGGAATGGG | 0.986 ± 0.011
TTTTTTATAG | 1 ± 0.038
GCTCTGAGCT | 1.05 ± 0.086
TTGGATGAAA | 1.03 ± 0.076
CTGGGGAGGA | 0.997 ± 0.028
AGCAAGAGGC | 1.26 ± 0.34

Sequence | switch fluorescence ratio
AAAGGAGGAA | 0.989 ± 0.019
CTGAGGATCG | 0.994 ± 0.034
GCTAACAGAG | 0.984 ± 0.035
TTTGCCTTTG | 0.9991 ± 0.0076
CGATTAGGTG | 1.193 ± 0.0052
GATTGGAGGG | 0.997 ± 0.026
AGGAGAGTCA | 0.9825 ± 0.0036
GAGTAGAGGG | 0.954 ± 0.014
TAATAGGTTG | 0.97 ± 0.012
GGGGGGTGAG | 0.974 ± 0.037
AGAGTGTATG | 1.006 ± 0.0086
GTGGTCGATG | 0.953 ± 0.043
CGGGACGGGC | 1.04 ± 0.043
CACGGGGGGA | 0.99 ± 0.033
CGGGTTTCGC | 0.986 ± 0.014
AGGGAGCTCC | 1.01 ± 0.025
AGGGGTTGTT | 1.07 ± 0.091
ATCGGGATAG | 1.04 ± 0.044
ACGAGACGAC | 1.06 ± 0.023
GCAGCATGC | 1.1 ± 0.17
CGTTTTGTGC | 1.03 ± 0.042
GCAGTGCCTA | 0.993 ± 0.044
GAGGGCAATC | 2.76 ± 0.64
TGACGACGCC | 4.6 ± 0.054
TTCCGTTTTA | 1.15 ± 0.17
TATTTTATTG | 1.03 ± 0.02

Sequence | switch fluorescence ratio
AAATCAAACG | 1.05 ± 0.018
GGAGTACGGC | 1.06 ± 0.052
TCAATAATCG | 1.01 ± 0.055
CCGGGTGGGT | 1.11 ± 0.13
GGTCATATGC | 1.04 ± 0.013
CAGGTAGGGT | 1.01 ± 0.052
GGGGGATGCT | 0.975 ± 0.039
TTTGAGGAGG | 0.9876 ± 0.0046
CTGGGGAAAC | 1.03 ± 0.064
TTGTATTTGT | 0.999 ± 0.031
TAAAGGTTCG | 0.9618 ± 0.009
CGTGTGGCCA | 1 ± 0.016
TTGGTTTTTG | 1 ± 0.037
GCGGGCGGCC | 0.9812 ± 0.0082
AGGGGCAAAT | 1.01 ± 0.029
TTTGTTGCTG | 1.03 ± 0.039
TCGAGCTAAT | 1.41 ± 0.11
CGTTATTCGG | 0.965 ± 0.032
TTGTATTCGG | 1 ± 0.03
GTAGTGGGGT | 0.987 ± 0.016
ATTCTAGTAT | 0.962 ± 0.026
GCGGGGCAGC | 1.001 ± 0.0068
GGGGTCGGG | 0.977 ± 0.044
TGGTGGCTGG | 0.989 ± 0.028
CGACAAAGCC | 1.28 ± 0.014
GCGGTGCGGG | 0.9878 ± 0.0042

Sequence | switch fluorescence ratio
TCTCAGTGTT | 1.028 ± 0.0064
CGAGTCCAGG | 6.48 ± 0.097
TGCAGATCGG | 0.9927 ± 0.0028
CGCCTTTACA | 1.02 ± 0.029
AAATTAATCA | 1.04 ± 0.094
TTGGAGGGGG | 1.01 ± 0.039
GATGGGATTG | 0.966 ± 0.037
CGGGTTAATA | 0.989 ± 0.022
AAAGGGGATG | 1.01 ± 0.016
ATTATGGGAG | 0.989 ± 0.011
AAGGTATGC | 1.01 ± 0.048
ATTGAGCGGG | 1 ± 0.034
CGATAACGTC | 0.992 ± 0.011
GAGGGCGGGG | 1.05 ± 0.077
ATGATGTGGT | 0.992 ± 0.022
TGTGTGATAC | 1.549 ± 0.0055
CCCGGGTTAT | 0.9942 ± 0.0075
TTTCTGGGGT | 1.01 ± 0.054
AGATCTGGGG | 1.04 ± 0.036
CACGGGGGCG | 1 ± 0.049
TACTTTAGGG | 1.04 ± 0.024
AACAGAGGGG | 1.01 ± 0.018
AAGGTACCGT | 1.05 ± 0.055
ATATGATGTG | 1.01 ± 0.03
ATCTTGGACG | 1.05 ± 0.027
TTTTAGACGT | 0.991 ± 0.022

Sequence | switch fluorescence ratio
GAGGAAAAAT | 1.062 ± 0.0021
AAAGAGCGCC | 0.947 ± 0.03
AAATGTTTTG | 1.03 ± 0.026
TTATTACGTG | 1.01 ± 0.023
TCGAGGGGAT | 1.01 ± 0.027
AAGTAAGTAG | 1.01 ± 0.021
GGGTCTTGGC | 1.0357 ± 0.00074
ACTCGTTTAT | 0.99 ± 0.013
AGCAAGTTGT | 1.03 ± 0.011
CTATTATTCT | 0.983 ± 0.018
CAGGTAAAAG | 1.01 ± 0.035
GGGTCCTGCG | 1.04 ± 0.019
GATGAATTGC | 1.01 ± 0.033
CTTGGCATCT | 1.01 ± 0.033
CAGGGCTTGA | 1.03 ± 0.093
TACAGGGGTA | 1.05 ± 0.012
TATTAAGCGA | 1.05 ± 0.037
ATGCAGGTCC | 1.03 ± 0.037
TACGTGTGGG | 1.02 ± 0.038
GACGATACGT | 1.14 ± 0.038
TTTCATGTCT | 0.992 ± 0.019
CAGTCATGCC | 0.971 ± 0.058
TGGCCCCTAT | 0.962 ± 0.029
GCAGTAGTTA | 1.03 ± 0.013
TACTTGTTTC | 1.01 ± 0.027
ACGGGTTGTC | 0.981 ± 0.11

Sequence | switch fluorescence ratio
TCGGTCATGG | 0.993 ± 0.023
AGAATTGCGG | 0.98 ± 0.044
TTATTTTGGT | 1.01 ± 0.035
AGTTTCGGTA | 0.977 ± 0.018
TACCTTTGGG | 1.02 ± 0.032
CAGTAGATGG | 0.985 ± 0.024
ACTGGGTCCT | 0.973 ± 0.015
TTGTTTAAAA | 1.01 ± 0.049
ACTTGACTTG | 1.03 ± 0.018
TTATTGGTTT | 1.048 ± 0.0096
AGGGCGCGTT | 0.9645 ± 0.0028
TATTGGGGAA | 0.978 ± 0.01
TTTTGAACGC | 1.065 ± 0.0016
TCATATTATC | 1 ± 0.029
GCATGATGGA | 0.975 ± 0.022
TTTGTTGTCT | 0.995 ± 0.011
GTGATGAACG | 1.01 ± 0.092
GGATGCTTTC | 1.02 ± 0.026
GAGGGGAGGC | 1.29 ± 0.39
TTTTCTCAGC | 1.05 ± 0.029
AAAATTATAT | 1.02 ± 0.035
TTGGAGTTTT | 1.01 ± 0.038
TGGGGCAAGG | 1.04 ± 0.031
